Experimental findings from article PMC5037378 are described below.

The target in the experiment is Aggrecan (UniProt P13608). Description: solid phase binding assay (ELISA-type, HRP anti-human IgG Fc, OPD colorimetric). Conditions: PTPσ-Fc 80 nM, wells coated with aggrecan 10 μg/ml, read off a plot. For orientation: ELISA stands for enzyme-linked immunosorbent assay.
UniProt P13608, sequence (P13608 17-2364): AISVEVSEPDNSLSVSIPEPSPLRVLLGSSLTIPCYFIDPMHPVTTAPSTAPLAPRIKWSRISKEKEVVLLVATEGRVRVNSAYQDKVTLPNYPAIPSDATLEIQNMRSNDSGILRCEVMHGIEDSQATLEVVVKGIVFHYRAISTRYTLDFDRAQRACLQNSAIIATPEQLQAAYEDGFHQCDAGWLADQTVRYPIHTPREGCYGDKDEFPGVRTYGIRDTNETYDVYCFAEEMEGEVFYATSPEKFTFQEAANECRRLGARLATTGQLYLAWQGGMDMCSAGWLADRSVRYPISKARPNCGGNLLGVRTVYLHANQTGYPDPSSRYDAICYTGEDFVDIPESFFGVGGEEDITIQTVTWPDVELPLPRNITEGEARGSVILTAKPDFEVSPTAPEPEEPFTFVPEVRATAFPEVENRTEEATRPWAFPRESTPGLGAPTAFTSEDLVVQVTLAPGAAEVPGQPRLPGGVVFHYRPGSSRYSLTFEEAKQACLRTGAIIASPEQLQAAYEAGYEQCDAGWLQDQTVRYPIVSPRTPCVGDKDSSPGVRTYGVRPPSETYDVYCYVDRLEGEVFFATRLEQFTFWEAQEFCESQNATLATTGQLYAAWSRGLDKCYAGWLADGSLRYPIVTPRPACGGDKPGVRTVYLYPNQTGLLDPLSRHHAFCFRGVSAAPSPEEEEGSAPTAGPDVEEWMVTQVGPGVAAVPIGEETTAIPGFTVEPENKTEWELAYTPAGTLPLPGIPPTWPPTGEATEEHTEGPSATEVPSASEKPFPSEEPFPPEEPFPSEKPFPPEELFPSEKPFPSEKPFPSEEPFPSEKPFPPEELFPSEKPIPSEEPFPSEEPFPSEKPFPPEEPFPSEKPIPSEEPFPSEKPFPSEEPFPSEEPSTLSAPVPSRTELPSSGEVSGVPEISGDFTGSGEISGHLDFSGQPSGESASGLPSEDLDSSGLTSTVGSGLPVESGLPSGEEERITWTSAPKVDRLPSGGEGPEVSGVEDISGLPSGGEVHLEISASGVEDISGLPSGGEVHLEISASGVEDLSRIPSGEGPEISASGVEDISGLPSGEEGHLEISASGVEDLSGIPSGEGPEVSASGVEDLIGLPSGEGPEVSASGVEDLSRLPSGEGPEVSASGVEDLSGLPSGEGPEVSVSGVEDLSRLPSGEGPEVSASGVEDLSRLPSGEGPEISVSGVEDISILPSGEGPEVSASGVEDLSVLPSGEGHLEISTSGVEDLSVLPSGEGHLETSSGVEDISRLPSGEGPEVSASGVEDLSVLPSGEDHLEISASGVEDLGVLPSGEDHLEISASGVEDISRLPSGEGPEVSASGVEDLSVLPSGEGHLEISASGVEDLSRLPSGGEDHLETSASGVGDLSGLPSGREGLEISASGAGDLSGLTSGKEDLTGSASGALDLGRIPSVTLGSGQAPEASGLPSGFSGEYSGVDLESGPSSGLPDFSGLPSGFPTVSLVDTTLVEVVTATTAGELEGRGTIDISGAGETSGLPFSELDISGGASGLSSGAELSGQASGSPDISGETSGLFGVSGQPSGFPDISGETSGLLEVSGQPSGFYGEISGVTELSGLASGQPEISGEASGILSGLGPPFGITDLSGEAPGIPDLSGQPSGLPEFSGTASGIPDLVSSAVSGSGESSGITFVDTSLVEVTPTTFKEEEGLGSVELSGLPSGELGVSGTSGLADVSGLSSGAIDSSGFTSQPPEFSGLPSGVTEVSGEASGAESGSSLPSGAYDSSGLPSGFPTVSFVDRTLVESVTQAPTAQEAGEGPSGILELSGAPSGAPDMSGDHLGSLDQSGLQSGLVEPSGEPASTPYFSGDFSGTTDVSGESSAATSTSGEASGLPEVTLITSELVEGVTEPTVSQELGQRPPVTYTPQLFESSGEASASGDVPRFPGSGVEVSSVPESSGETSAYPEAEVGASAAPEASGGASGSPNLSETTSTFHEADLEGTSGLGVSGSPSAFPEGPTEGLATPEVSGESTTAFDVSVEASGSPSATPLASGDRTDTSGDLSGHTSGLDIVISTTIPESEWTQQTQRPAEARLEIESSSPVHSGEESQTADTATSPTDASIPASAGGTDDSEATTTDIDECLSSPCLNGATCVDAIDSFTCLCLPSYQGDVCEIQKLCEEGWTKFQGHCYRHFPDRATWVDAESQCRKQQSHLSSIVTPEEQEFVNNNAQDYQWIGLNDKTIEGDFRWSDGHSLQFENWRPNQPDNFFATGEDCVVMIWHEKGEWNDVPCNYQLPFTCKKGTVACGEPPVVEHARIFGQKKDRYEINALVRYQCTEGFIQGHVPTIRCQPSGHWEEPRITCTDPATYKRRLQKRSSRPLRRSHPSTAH

As to “PTPσ (protein tyrosine phosphatase sigma) N-terminal extracellular part with the three Ig domains, Fc-tagged, wild type (from UniProt B0V2N1) PTPσ mutant (lacks the CS binding site; substitutions not printed)”, the response was 0.081 A450 (HB-GAM 0 nM, parent: est. 1.2); 0.085 A450 (HB-GAM 10 nM, parent: est. 0.88); 0.085 A450 (HB-GAM 20 nM, parent: est. 0.64); 0.084 A450 (HB-GAM 40 nM, parent: est. 0.43); 0.083 A450 (HB-GAM 80 nM, parent: est. 0.31); 0.083 A450 (HB-GAM 160 nM, parent: est. 0.25). The response (HB-GAM 320 nM, parent: est. 0.23) was found to be 0.084 A450.
